Measured values taken from patent US11130793B2, “GLP-1/GLP-2 dual agonists” (Zealand Pharma A/S, priority 2016, dated 2021).
Square brackets hold non-standard residues; d marks the D form. Aib = CC(C)(N)C(=O)O

B1: Compound 7 (peptide)
peptide: H-H[Aib]EGSFTSELATILDEQAARDFIAWLIYHKITD-OH
SMILES: CC[C@H](C)[C@H](NC(=O)[C@H](Cc1ccccc1)NC(=O)[C@H](CC(=O)O)NC(=O)[C@H](CCCNC(=N)N)NC(=O)[C@H](C)NC(=O)[C@H](C)NC(=O)[C@H](CCC(N)=O)NC(=O)[C@H](CCC(=O)O)NC(=O)[C@H](CC(=O)O)NC(=O)[C@H](CC(C)C)NC(=O)[C@@H](NC(=O)[C@@H](NC(=O)[C@H](C)NC(=O)[C@H](CC(C)C)NC(=O)[C@H](CCC(=O)O)NC(=O)[C@H](CO)NC(=O)[C@@H](NC(=O)[C@H](Cc1ccccc1)NC(=O)[C@H](CO)NC(=O)CNC(=O)[C@H](CCC(=O)O)NC(=O)C(C)(C)NC(=O)[C@@H](N)Cc1c[nH]cn1)[C@@H](C)O)[C@@H](C)O)[C@@H](C)CC)C(=O)N[C@@H](C)C(=O)N[C@@H](Cc1c[nH]c2ccccc12)C(=O)N[C@@H](CC(C)C)C(=O)N[C@H](C(=O)N[C@@H](Cc1ccc(O)cc1)C(=O)N[C@@H](Cc1c[nH]cn1)C(=O)N[C@@H](CCCCN)C(=O)N[C@H](C(=O)N[C@H](C(=O)N[C@@H](CC(=O)O)C(=O)O)[C@@H](C)O)[C@@H](C)CC)[C@@H](C)CC
B2: Compound 8 (peptide)
peptide: H-H[Aib]EGSFTSELATILDEQAARDFIAWLILHKITD-OH
SMILES: CC[C@H](C)[C@H](NC(=O)[C@H](Cc1ccccc1)NC(=O)[C@H](CC(=O)O)NC(=O)[C@H](CCCNC(=N)N)NC(=O)[C@H](C)NC(=O)[C@H](C)NC(=O)[C@H](CCC(N)=O)NC(=O)[C@H](CCC(=O)O)NC(=O)[C@H](CC(=O)O)NC(=O)[C@H](CC(C)C)NC(=O)[C@@H](NC(=O)[C@@H](NC(=O)[C@H](C)NC(=O)[C@H](CC(C)C)NC(=O)[C@H](CCC(=O)O)NC(=O)[C@H](CO)NC(=O)[C@@H](NC(=O)[C@H](Cc1ccccc1)NC(=O)[C@H](CO)NC(=O)CNC(=O)[C@H](CCC(=O)O)NC(=O)C(C)(C)NC(=O)[C@@H](N)Cc1c[nH]cn1)[C@@H](C)O)[C@@H](C)O)[C@@H](C)CC)C(=O)N[C@@H](C)C(=O)N[C@@H](Cc1c[nH]c2ccccc12)C(=O)N[C@@H](CC(C)C)C(=O)N[C@H](C(=O)N[C@@H](CC(C)C)C(=O)N[C@@H](Cc1c[nH]cn1)C(=O)N[C@@H](CCCCN)C(=O)N[C@H](C(=O)N[C@H](C(=O)N[C@@H](CC(=O)O)C(=O)O)[C@@H](C)O)[C@@H](C)CC)[C@@H](C)CC
B3: Compound 3 (peptide)
peptide: H-H[Aib]EGTFTSELATILDEQAARDFIAWLIAHKITD-OH
SMILES: CC[C@H](C)[C@H](NC(=O)[C@H](CC(C)C)NC(=O)[C@H](Cc1c[nH]c2ccccc12)NC(=O)[C@H](C)NC(=O)[C@@H](NC(=O)[C@H](Cc1ccccc1)NC(=O)[C@H](CC(=O)O)NC(=O)[C@H](CCCNC(=N)N)NC(=O)[C@H](C)NC(=O)[C@H](C)NC(=O)[C@H](CCC(N)=O)NC(=O)[C@H](CCC(=O)O)NC(=O)[C@H](CC(=O)O)NC(=O)[C@H](CC(C)C)NC(=O)[C@@H](NC(=O)[C@@H](NC(=O)[C@H](C)NC(=O)[C@H](CC(C)C)NC(=O)[C@H](CCC(=O)O)NC(=O)[C@H](CO)NC(=O)[C@@H](NC(=O)[C@H](Cc1ccccc1)NC(=O)[C@@H](NC(=O)CNC(=O)[C@H](CCC(=O)O)NC(=O)C(C)(C)NC(=O)[C@@H](N)Cc1c[nH]cn1)[C@@H](C)O)[C@@H](C)O)[C@@H](C)O)[C@@H](C)CC)[C@@H](C)CC)C(=O)N[C@@H](C)C(=O)N[C@@H](Cc1c[nH]cn1)C(=O)N[C@@H](CCCCN)C(=O)N[C@H](C(=O)N[C@H](C(=O)N[C@@H](CC(=O)O)C(=O)O)[C@@H](C)O)[C@@H](C)CC
B4: Compound 6 (peptide)
peptide: H-H[Aib]EGSFTSELATILDEQAARDFIAWLIHHKITD-OH
SMILES: CC[C@H](C)[C@H](NC(=O)[C@H](Cc1ccccc1)NC(=O)[C@H](CC(=O)O)NC(=O)[C@H](CCCNC(=N)N)NC(=O)[C@H](C)NC(=O)[C@H](C)NC(=O)[C@H](CCC(N)=O)NC(=O)[C@H](CCC(=O)O)NC(=O)[C@H](CC(=O)O)NC(=O)[C@H](CC(C)C)NC(=O)[C@@H](NC(=O)[C@@H](NC(=O)[C@H](C)NC(=O)[C@H](CC(C)C)NC(=O)[C@H](CCC(=O)O)NC(=O)[C@H](CO)NC(=O)[C@@H](NC(=O)[C@H](Cc1ccccc1)NC(=O)[C@H](CO)NC(=O)CNC(=O)[C@H](CCC(=O)O)NC(=O)C(C)(C)NC(=O)[C@@H](N)Cc1c[nH]cn1)[C@@H](C)O)[C@@H](C)O)[C@@H](C)CC)C(=O)N[C@@H](C)C(=O)N[C@@H](Cc1c[nH]c2ccccc12)C(=O)N[C@@H](CC(C)C)C(=O)N[C@H](C(=O)N[C@@H](Cc1c[nH]cn1)C(=O)N[C@@H](Cc1c[nH]cn1)C(=O)N[C@@H](CCCCN)C(=O)N[C@H](C(=O)N[C@H](C(=O)N[C@@H](CC(=O)O)C(=O)O)[C@@H](C)O)[C@@H](C)CC)[C@@H](C)CC
B5: Compound 5 (peptide)
peptide: H-H[Aib]EGTFTSELATILDEQAARDFIAWLIEHKITD-OH
SMILES: CC[C@H](C)[C@H](NC(=O)[C@H](Cc1ccccc1)NC(=O)[C@H](CC(=O)O)NC(=O)[C@H](CCCNC(=N)N)NC(=O)[C@H](C)NC(=O)[C@H](C)NC(=O)[C@H](CCC(N)=O)NC(=O)[C@H](CCC(=O)O)NC(=O)[C@H](CC(=O)O)NC(=O)[C@H](CC(C)C)NC(=O)[C@@H](NC(=O)[C@@H](NC(=O)[C@H](C)NC(=O)[C@H](CC(C)C)NC(=O)[C@H](CCC(=O)O)NC(=O)[C@H](CO)NC(=O)[C@@H](NC(=O)[C@H](Cc1ccccc1)NC(=O)[C@@H](NC(=O)CNC(=O)[C@H](CCC(=O)O)NC(=O)C(C)(C)NC(=O)[C@@H](N)Cc1c[nH]cn1)[C@@H](C)O)[C@@H](C)O)[C@@H](C)O)[C@@H](C)CC)C(=O)N[C@@H](C)C(=O)N[C@@H](Cc1c[nH]c2ccccc12)C(=O)N[C@@H](CC(C)C)C(=O)N[C@H](C(=O)N[C@@H](CCC(=O)O)C(=O)N[C@@H](Cc1c[nH]cn1)C(=O)N[C@@H](CCCCN)C(=O)N[C@H](C(=O)N[C@H](C(=O)N[C@@H](CC(=O)O)C(=O)O)[C@@H](C)O)[C@@H](C)CC)[C@@H](C)CC
B6: Compound 9 (peptide)
peptide: H-H[Aib]EGTFTDELATILDEQAARDFIAWLIAHKITD-OH
SMILES: CC[C@H](C)[C@H](NC(=O)[C@H](CC(C)C)NC(=O)[C@H](Cc1c[nH]c2ccccc12)NC(=O)[C@H](C)NC(=O)[C@@H](NC(=O)[C@H](Cc1ccccc1)NC(=O)[C@H](CC(=O)O)NC(=O)[C@H](CCCNC(=N)N)NC(=O)[C@H](C)NC(=O)[C@H](C)NC(=O)[C@H](CCC(N)=O)NC(=O)[C@H](CCC(=O)O)NC(=O)[C@H](CC(=O)O)NC(=O)[C@H](CC(C)C)NC(=O)[C@@H](NC(=O)[C@@H](NC(=O)[C@H](C)NC(=O)[C@H](CC(C)C)NC(=O)[C@H](CCC(=O)O)NC(=O)[C@H](CC(=O)O)NC(=O)[C@@H](NC(=O)[C@H](Cc1ccccc1)NC(=O)[C@@H](NC(=O)CNC(=O)[C@H](CCC(=O)O)NC(=O)C(C)(C)NC(=O)[C@@H](N)Cc1c[nH]cn1)[C@@H](C)O)[C@@H](C)O)[C@@H](C)O)[C@@H](C)CC)[C@@H](C)CC)C(=O)N[C@@H](C)C(=O)N[C@@H](Cc1c[nH]cn1)C(=O)N[C@@H](CCCCN)C(=O)N[C@H](C(=O)N[C@H](C(=O)N[C@@H](CC(=O)O)C(=O)O)[C@@H](C)O)[C@@H](C)CC
B7: Compound 4 (peptide)
peptide: H-H[Aib]EGSFTSELATILDEQAARDFIAWLIEHKITD-OH
SMILES: CC[C@H](C)[C@H](NC(=O)[C@H](Cc1ccccc1)NC(=O)[C@H](CC(=O)O)NC(=O)[C@H](CCCNC(=N)N)NC(=O)[C@H](C)NC(=O)[C@H](C)NC(=O)[C@H](CCC(N)=O)NC(=O)[C@H](CCC(=O)O)NC(=O)[C@H](CC(=O)O)NC(=O)[C@H](CC(C)C)NC(=O)[C@@H](NC(=O)[C@@H](NC(=O)[C@H](C)NC(=O)[C@H](CC(C)C)NC(=O)[C@H](CCC(=O)O)NC(=O)[C@H](CO)NC(=O)[C@@H](NC(=O)[C@H](Cc1ccccc1)NC(=O)[C@H](CO)NC(=O)CNC(=O)[C@H](CCC(=O)O)NC(=O)C(C)(C)NC(=O)[C@@H](N)Cc1c[nH]cn1)[C@@H](C)O)[C@@H](C)O)[C@@H](C)CC)C(=O)N[C@@H](C)C(=O)N[C@@H](Cc1c[nH]c2ccccc12)C(=O)N[C@@H](CC(C)C)C(=O)N[C@H](C(=O)N[C@@H](CCC(=O)O)C(=O)N[C@@H](Cc1c[nH]cn1)C(=O)N[C@@H](CCCCN)C(=O)N[C@H](C(=O)N[C@H](C(=O)N[C@@H](CC(=O)O)C(=O)O)[C@@H](C)O)[C@@H](C)CC)[C@@H](C)CC

Key:
[1] = target: human glucagon-like peptide 1 receptor (GLP-1R) (human, UniProt P43220); experiment: cell-based or functional assay
[2] = target: T1, human GLP-2 receptor (hGLP2-R) (human, UniProt O95838); experiment: cell-based or functional assay
T1 sequence: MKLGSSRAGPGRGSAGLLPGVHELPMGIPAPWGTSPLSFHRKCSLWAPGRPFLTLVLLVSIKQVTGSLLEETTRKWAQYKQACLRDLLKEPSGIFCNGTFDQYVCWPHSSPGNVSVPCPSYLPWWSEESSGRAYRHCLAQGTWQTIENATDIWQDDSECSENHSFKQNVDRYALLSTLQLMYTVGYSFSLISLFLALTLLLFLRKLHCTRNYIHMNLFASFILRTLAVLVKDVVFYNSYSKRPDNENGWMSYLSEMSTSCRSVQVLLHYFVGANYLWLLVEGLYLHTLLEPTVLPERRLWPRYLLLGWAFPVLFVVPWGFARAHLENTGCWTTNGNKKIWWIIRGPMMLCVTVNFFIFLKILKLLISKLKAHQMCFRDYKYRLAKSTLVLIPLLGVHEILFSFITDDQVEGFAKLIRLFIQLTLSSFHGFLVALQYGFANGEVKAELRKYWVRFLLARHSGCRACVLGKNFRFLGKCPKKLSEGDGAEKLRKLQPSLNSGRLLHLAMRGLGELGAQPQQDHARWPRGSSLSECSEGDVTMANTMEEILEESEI

Binder	EC50 GLP-1 (nM); cAMP AlphaScreen [1]	EC50 GLP-2 (nM); cAMP AlphaScreen [2]
B1	0.017 nM	0.11 nM
B2	0.021 nM	0.084 nM
B3	0.0074 nM	0.036 nM
B4	0.014 nM	0.047 nM
B5	0.0098 nM	0.067 nM
B6	0.007 nM	0.041 nM
B7	0.015 nM	0.044 nM
HGDGSFSDEMNTILDNLAARDFINWLIQTKITD [Teduglutide ([Gly2]-hGLP-2 (1-33))]	39 nM	–
